Reference: the supplement of paper PMC7877785
± gives the uncertainty stated by the source.

Assay: self-splicing fitness, log relative to wild type (ln ratio); higher = more splicing; Tetrahymena group I intron in knt gene, E. coli kanamycin selection, DiMSum; sequences stand for … in CUCUCU…GGAGGGAAAAGUUAUCAGGCAUGCACCUGGUAGCUAGUCUUUAAACCAAUAGAUUGCAUCGGUUUAAAAGGCAAGACCGUCAAAUUGCGGGAAAGGGGUCAACAGCCGUUCAGUACCAAGUCUCAGGGGAAACUUUGAGAUGGCCUUGCAAAGGGUAUGGUAAUAAGCUGACGGACAUGGUCCUAACCACGCAGCCAAGUCCUAAGUCAACAGAUCUUCUGUUGAUAUGGAUGCAGUUCACAGACUAAAUGUCGGUCGGGGAAGAUGUAUUCUUCUCAUAAGAUAUAGUCGGACCUCUCCUUAAUGGGAGCUAGCGGAUGAAGUGAUGCAACACUGGAGCCGCUGGGAACUAAUUUGUAUGCGAAAGUAUAUUGAUUAGUUUUGGAGUACUCGUGGUCG
How it was run: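 Colonies from six replicate transformations of E. coli BL21(DE3) were pooled and amplicon-sequenced on an Illumina HiSeq 2500. The library placed an intron with all eight P1ex-region nucleotides randomised inside the knt kanamycin-resistance gene on pET-22b(+), and cells grew overnight at 37°C or 30°C on LB agar with or without 25 μg/mL kanamycin (plus 100 μg/mL carbenicillin, 50 μM IPTG, 0.2% rhamnose). Fitness is the DiMSum error-weighted combination of wild-type-normalised replicate fold changes, kanamycin versus none.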

ACCCAGCAAUAUUACGCCUG
self-splicing fitness (ln) (30 °C): -2.21 ± 0.12
self-splicing fitness (ln) (37 °C): -3 ± 0.26

ACCCAGCAAUAUUACGCGAA
self-splicing fitness (ln) (30 °C): -1.26 ± 0.068
self-splicing fitness (ln) (37 °C): -0.703 ± 0.078

ACCCAGCAAUAUUACGCUAG
self-splicing fitness (ln) (30 °C): -2.81 ± 0.1
self-splicing fitness (ln) (37 °C): -1.77 ± 0.12

ACCCAGCAAUAUUACGCUUG
self-splicing fitness (ln) (30 °C): -3.38 ± 0.11
self-splicing fitness (ln) (37 °C): -2.43 ± 0.12

ACCCAGCAAUAUUACGGCAU
self-splicing fitness (ln) (30 °C): -0.483 ± 0.042
self-splicing fitness (ln) (37 °C): 0.0474 ± 0.058

ACCCAGCAAUAUUACGGGGA
self-splicing fitness (ln) (30 °C): -1.02 ± 0.053
self-splicing fitness (ln) (37 °C): -0.524 ± 0.065

ACCCAGCAAUAUUACGGUAU
self-splicing fitness (ln) (30 °C): -0.563 ± 0.047
self-splicing fitness (ln) (37 °C): -0.154 ± 0.068

ACCCAGCAAUAUUACGGUCC
self-splicing fitness (ln) (30 °C): -1.61 ± 0.085
self-splicing fitness (ln) (37 °C): -1.4 ± 0.12

ACCCAGCAAUAUUACGGUCG
self-splicing fitness (ln) (30 °C): -3.85 ± 0.14
self-splicing fitness (ln) (37 °C): -1.75 ± 0.095

ACCCAGCAAUAUUACGGUCU
self-splicing fitness (ln) (30 °C): -1.12 ± 0.038
self-splicing fitness (ln) (37 °C): -0.171 ± 0.052

ACCCAGCAAUAUUACGGUUA
self-splicing fitness (ln) (30 °C): -0.324 ± 0.059
self-splicing fitness (ln) (37 °C): -0.361 ± 0.06

ACCCAGCAAUAUUACGUGCG
self-splicing fitness (ln) (30 °C): -3.12 ± 0.13
self-splicing fitness (ln) (37 °C): -1.85 ± 0.098

ACCCAGCAAUAUUACGUGUA
self-splicing fitness (ln) (30 °C): -1.38 ± 0.06
self-splicing fitness (ln) (37 °C): -0.689 ± 0.064

ACCCAGCAAUAUUACGUUAU
self-splicing fitness (ln) (30 °C): -1.91 ± 0.064
self-splicing fitness (ln) (37 °C): -1.04 ± 0.081

ACCCAGCAAUAUUACGUUUU
self-splicing fitness (ln) (30 °C): -1.41 ± 0.048
self-splicing fitness (ln) (37 °C): -0.336 ± 0.066

ACCGAGCAAUAUUACGAAAC
self-splicing fitness (ln) (37 °C): -2.95 ± 0.37

ACCGAGCAAUAUUACGACAA
self-splicing fitness (ln) (30 °C): -2.37 ± 0.22
self-splicing fitness (ln) (37 °C): -2.4 ± 0.26

ACCGAGCAAUAUUACGACGC
self-splicing fitness (ln) (30 °C): -0.285 ± 0.089
self-splicing fitness (ln) (37 °C): -0.16 ± 0.11

ACCGAGCAAUAUUACGAGCA
self-splicing fitness (ln) (30 °C): -2.63 ± 0.13
self-splicing fitness (ln) (37 °C): -1.99 ± 0.13

ACCGAGCAAUAUUACGAUCC
self-splicing fitness (ln) (30 °C): -2.86 ± 0.34
self-splicing fitness (ln) (37 °C): -1.94 ± 0.29

ACCGAGCAAUAUUACGAUCU
self-splicing fitness (ln) (30 °C): -1.66 ± 0.14
self-splicing fitness (ln) (37 °C): -0.405 ± 0.15

ACCGAGCAAUAUUACGCAGG
self-splicing fitness (ln) (30 °C): -4.2 ± 0.47
self-splicing fitness (ln) (37 °C): -2.65 ± 0.41

ACCGAGCAAUAUUACGCGGG
self-splicing fitness (ln) (30 °C): -3.85 ± 0.18
self-splicing fitness (ln) (37 °C): -2.89 ± 0.19

ACCGAGCAAUAUUACGCUAA
self-splicing fitness (ln) (30 °C): -3.28 ± 0.32
self-splicing fitness (ln) (37 °C): -2.05 ± 0.28

ACCGAGCAAUAUUACGGAAA
self-splicing fitness (ln) (30 °C): -2.92 ± 0.12
self-splicing fitness (ln) (37 °C): -2.5 ± 0.12

ACCGAGCAAUAUUACGGAUU
self-splicing fitness (ln) (30 °C): -3.51 ± 0.16
self-splicing fitness (ln) (37 °C): -1.94 ± 0.16

ACCGAGCAAUAUUACGGCAG
self-splicing fitness (ln) (30 °C): -4.4 ± 0.39

ACCGAGCAAUAUUACGGGCC
self-splicing fitness (ln) (30 °C): -3.39 ± 0.17
self-splicing fitness (ln) (37 °C): -2.09 ± 0.15

ACCGAGCAAUAUUACGGGGC
self-splicing fitness (ln) (30 °C): -3.64 ± 0.2
self-splicing fitness (ln) (37 °C): -2.47 ± 0.2

ACCGAGCAAUAUUACGGGUC
self-splicing fitness (ln) (30 °C): -4.23 ± 0.14
self-splicing fitness (ln) (37 °C): -3.06 ± 0.14

ACCGAGCAAUAUUACGGGUU
self-splicing fitness (ln) (30 °C): -2.85 ± 0.12
self-splicing fitness (ln) (37 °C): -2.54 ± 0.18

ACCGAGCAAUAUUACGGUAG
self-splicing fitness (ln) (30 °C): -3.75 ± 0.23
self-splicing fitness (ln) (37 °C): -2.73 ± 0.24

ACCGAGCAAUAUUACGUAAA
self-splicing fitness (ln) (30 °C): -4.22 ± 0.29
self-splicing fitness (ln) (37 °C): -1.66 ± 0.19

ACCGAGCAAUAUUACGUAAG
self-splicing fitness (ln) (30 °C): -2.67 ± 0.13
self-splicing fitness (ln) (37 °C): -2.13 ± 0.16

ACCGAGCAAUAUUACGUAUG
self-splicing fitness (ln) (30 °C): -3.56 ± 0.15
self-splicing fitness (ln) (37 °C): -2.28 ± 0.15

ACCGAGCAAUAUUACGUCUG
self-splicing fitness (ln) (30 °C): -2.37 ± 0.095
self-splicing fitness (ln) (37 °C): -2.28 ± 0.14

ACCGAGCAAUAUUACGUGUA
self-splicing fitness (ln) (30 °C): -2.2 ± 0.13
self-splicing fitness (ln) (37 °C): -1.49 ± 0.096

ACCGAGCAAUAUUACGUUCG
self-splicing fitness (ln) (30 °C): -3.19 ± 0.48
self-splicing fitness (ln) (37 °C): -1.76 ± 0.23

ACCUAGCAAUAUUACGAACA
self-splicing fitness (ln) (30 °C): -2.24 ± 0.29
self-splicing fitness (ln) (37 °C): 0.383 ± 0.2

ACCUAGCAAUAUUACGAACC
self-splicing fitness (ln) (30 °C): -1.67 ± 0.16
self-splicing fitness (ln) (37 °C): -1.07 ± 0.19

ACCUAGCAAUAUUACGAAUG
self-splicing fitness (ln) (30 °C): -3.04 ± 0.15
self-splicing fitness (ln) (37 °C): -2.3 ± 0.13

ACCUAGCAAUAUUACGACAU
self-splicing fitness (ln) (30 °C): -0.784 ± 0.011
self-splicing fitness (ln) (37 °C): -0.119 ± 0.032

ACCUAGCAAUAUUACGACUA
self-splicing fitness (ln) (30 °C): -2.72 ± 0.21
self-splicing fitness (ln) (37 °C): -1.78 ± 0.23

ACCUAGCAAUAUUACGAGAU
self-splicing fitness (ln) (30 °C): -2.54 ± 0.091
self-splicing fitness (ln) (37 °C): -1.3 ± 0.098

ACCUAGCAAUAUUACGAUAA
self-splicing fitness (ln) (30 °C): -2.61 ± 0.27
self-splicing fitness (ln) (37 °C): -2.1 ± 0.23

ACCUAGCAAUAUUACGAUGG
self-splicing fitness (ln) (30 °C): -3.01 ± 0.17
self-splicing fitness (ln) (37 °C): -0.981 ± 0.18

ACCUAGCAAUAUUACGAUUG
self-splicing fitness (ln) (30 °C): -3.2 ± 0.21
self-splicing fitness (ln) (37 °C): -2.28 ± 0.25

ACCUAGCAAUAUUACGCAAG
self-splicing fitness (ln) (30 °C): -2.73 ± 0.15
self-splicing fitness (ln) (37 °C): -2.2 ± 0.18
